B1: SPAM1-PPME: C-terminally truncated human PH20, precursor 474 aa (SEQ ID NO:26), mature 439 aa (SEQ ID NO:78) (protein, listed as Homo sapiens)
chain 1: MGVLKFKHIFFRSFVKSSGVSQIVFTFLLIPCCLTLNFRAPPVIPNVPFLWAWNAPSEFCLGKFDEPLDMSLFSFIGSPRINATGQGVTIFYVDRLGYYPYIDSITGVTVNGGIPQKISLQDHLDKAKKDITFYMPVDNLGMAVIDWEEWRPTWARNWKPKDVYKNRSIELVQQQNVQLSLTEATEKAKQEFEKAGKDFLVETIKLGKLLRPNHLWGYYLFPDCYNHHYKKPGYNGSCFNVEIKRNDDLSWLWNESTALYPSIYLNTQQSPVAATLYVRNRVREAIRVSKIPDAKSPLPVFAYTRIVFTDQVLKFLSQDELVYTFGETVALGASGIVIWGTLSIMRSMKSCLLLDNYMETILNPYIINVTLAAKMCSQVLCQEQGVCIRKNWNSSDYLHLNPDNFAIQLEKGGKFTVRGKPTLEDLEQFSEKFYCSCYSTLSCKEKADVKDTDAVDVCIADGVCIDAFLKPPME
chain 2: LNFRAPPVIPNVPFLWAWNAPSEFCLGKFDEPLDMSLFSFIGSPRINATGQGVTIFYVDRLGYYPYIDSITGVTVNGGIPQKISLQDHLDKAKKDITFYMPVDNLGMAVIDWEEWRPTWARNWKPKDVYKNRSIELVQQQNVQLSLTEATEKAKQEFEKAGKDFLVETIKLGKLLRPNHLWGYYLFPDCYNHHYKKPGYNGSCFNVEIKRNDDLSWLWNESTALYPSIYLNTQQSPVAATLYVRNRVREAIRVSKIPDAKSPLPVFAYTRIVFTDQVLKFLSQDELVYTFGETVALGASGIVIWGTLSIMRSMKSCLLLDNYMETILNPYIINVTLAAKMCSQVLCQEQGVCIRKNWNSSDYLHLNPDNFAIQLEKGGKFTVRGKPTLEDLEQFSEKFYCSCYSTLSCKEKADVKDTDAVDVCIADGVCIDAFLKPPME
modifications: HuPH20 precursor 1-474; Mature HuPH20 36-474
B2: SPAM1-PMET: C-terminally truncated human PH20, precursor 475 aa (SEQ ID NO:25), mature 440 aa (SEQ ID NO:77) (protein, listed as Homo sapiens)
chain 1: MGVLKFKHIFFRSFVKSSGVSQIVFTFLLIPCCLTLNFRAPPVIPNVPFLWAWNAPSEFCLGKFDEPLDMSLFSFIGSPRINATGQGVTIFYVDRLGYYPYIDSITGVTVNGGIPQKISLQDHLDKAKKDITFYMPVDNLGMAVIDWEEWRPTWARNWKPKDVYKNRSIELVQQQNVQLSLTEATEKAKQEFEKAGKDFLVETIKLGKLLRPNHLWGYYLFPDCYNHHYKKPGYNGSCFNVEIKRNDDLSWLWNESTALYPSIYLNTQQSPVAATLYVRNRVREAIRVSKIPDAKSPLPVFAYTRIVFTDQVLKFLSQDELVYTFGETVALGASGIVIWGTLSIMRSMKSCLLLDNYMETILNPYIINVTLAAKMCSQVLCQEQGVCIRKNWNSSDYLHLNPDNFAIQLEKGGKFTVRGKPTLEDLEQFSEKFYCSCYSTLSCKEKADVKDTDAVDVCIADGVCIDAFLKPPMET
chain 2: LNFRAPPVIPNVPFLWAWNAPSEFCLGKFDEPLDMSLFSFIGSPRINATGQGVTIFYVDRLGYYPYIDSITGVTVNGGIPQKISLQDHLDKAKKDITFYMPVDNLGMAVIDWEEWRPTWARNWKPKDVYKNRSIELVQQQNVQLSLTEATEKAKQEFEKAGKDFLVETIKLGKLLRPNHLWGYYLFPDCYNHHYKKPGYNGSCFNVEIKRNDDLSWLWNESTALYPSIYLNTQQSPVAATLYVRNRVREAIRVSKIPDAKSPLPVFAYTRIVFTDQVLKFLSQDELVYTFGETVALGASGIVIWGTLSIMRSMKSCLLLDNYMETILNPYIINVTLAAKMCSQVLCQEQGVCIRKNWNSSDYLHLNPDNFAIQLEKGGKFTVRGKPTLEDLEQFSEKFYCSCYSTLSCKEKADVKDTDAVDVCIADGVCIDAFLKPPMET
modifications: HuPH20 precursor 1-475; Mature HuPH20 36-475

Key:
CHO-S cells = assay: Western blot analysis of PH20 expression in media and cells after transient expression; format: cell-based, Chinese Hamster; conditions: media versus cells
In short: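 PH20 expression and solubility were judged by anti-PH20 Western blot of non-reduced media and cell fractions, with expression shown by a ~66 kDa band. Samples came from CHO-S cells transiently transfected (GeneJuice) with mutant PH20-HZ24 DNA and cultured 48-72 h. GPI-anchored mutants were cleaved with PI-PLC to release soluble protein.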

[1] = Microtiter hyaluronidase activity assay with biotinylated-hyaluronic acid; format: biochemical; conditions: Table 6, 72 hour post transfection supernatant

Molecule | Expressed in Media (CHO-S cells) | pH 5.5 Activity [1] [Units/ml] | pH 7.4 Activity [1] [Units/ml]
B1 | YES | 1.341 | 1.2105
B2 | YES | 2.0925 | 2.223
